What is called Kd is the equilibrium constant for the complex coming apart. A low value points to tighter binding.

The target in this assay is laminin β1 LN–LEa1–4 fragment (mouse, UniProt P02469 22-509). The experiment in a line: SPR.
laminin β1 LN–LEa1–4 fragment, sequence (P02469 22-509): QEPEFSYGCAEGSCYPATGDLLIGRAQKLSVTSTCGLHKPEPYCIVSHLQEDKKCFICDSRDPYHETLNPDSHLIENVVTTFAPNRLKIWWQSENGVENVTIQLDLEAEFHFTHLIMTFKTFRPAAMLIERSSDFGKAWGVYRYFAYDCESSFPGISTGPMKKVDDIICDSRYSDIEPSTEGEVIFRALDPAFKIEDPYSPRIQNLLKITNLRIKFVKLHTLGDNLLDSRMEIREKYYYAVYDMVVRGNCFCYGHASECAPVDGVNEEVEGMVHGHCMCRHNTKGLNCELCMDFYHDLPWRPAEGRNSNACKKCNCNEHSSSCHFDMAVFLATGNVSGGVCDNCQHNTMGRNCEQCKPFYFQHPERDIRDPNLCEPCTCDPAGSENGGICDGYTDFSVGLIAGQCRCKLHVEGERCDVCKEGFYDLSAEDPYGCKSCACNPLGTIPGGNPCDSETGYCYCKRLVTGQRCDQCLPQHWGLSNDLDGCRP

B1: laminin γ1 LN–LEa1–4 fragment (domain or fragment, mouse, UniProt P02468 34-492, looked up)
chain: AMDECADEGGRPQRCMPEFVNAAFNVTVVATNTCGTPPEEYCVQTGVTGVTKSCHLCDAGQQHLQHGAAFLTDYNNQADTTWWQSQTMLAGVQYPNSINLTLHLGKAFDITYVRLKFHTSRPESFAIYKRTREDGPWIPYQYYSGSCENTYSKANRGFIRTGGDEQQALCTDEFSDISPLTGGNVAFSTLEGRPSAYNFDNSPVLQEWVTATDIRVTLNRLNTFGDEVFNEPKVLKSYYYAISDFAVGGRCKCNGHASECVKNEFDKLMCNCKHNTYGVDCEKCLPFFNDRPWRRATAESASESLPCDCNGRSQECYFDPELYRSTGHGGHCTNCRDNTDGAKCERCRENFFRLGNTEACSPCHCSPVGSLSTQCDSYGRCSCKPGVMGDKCDRCQPGFHSLTEAGCRPCSCDLRGSTDECNVETGRCVCKDNVEGFNCERCKPGFFNLESSNPKGCTP
As to B1, the dissociation constant (Kd) was at least 5 µM.

The values are drawn from article PMC3059903 (EMBO Reports, 2011).
